Positions count from the first letter of the chain named. Each block holds one molecule with its values, some of them ahead of it.
How the values were obtained:
[1] = target: T1, human ferroportin 1 (human, UniProt Q9NP59 1-571); assay: cell-based or functional assay
T1 sequence: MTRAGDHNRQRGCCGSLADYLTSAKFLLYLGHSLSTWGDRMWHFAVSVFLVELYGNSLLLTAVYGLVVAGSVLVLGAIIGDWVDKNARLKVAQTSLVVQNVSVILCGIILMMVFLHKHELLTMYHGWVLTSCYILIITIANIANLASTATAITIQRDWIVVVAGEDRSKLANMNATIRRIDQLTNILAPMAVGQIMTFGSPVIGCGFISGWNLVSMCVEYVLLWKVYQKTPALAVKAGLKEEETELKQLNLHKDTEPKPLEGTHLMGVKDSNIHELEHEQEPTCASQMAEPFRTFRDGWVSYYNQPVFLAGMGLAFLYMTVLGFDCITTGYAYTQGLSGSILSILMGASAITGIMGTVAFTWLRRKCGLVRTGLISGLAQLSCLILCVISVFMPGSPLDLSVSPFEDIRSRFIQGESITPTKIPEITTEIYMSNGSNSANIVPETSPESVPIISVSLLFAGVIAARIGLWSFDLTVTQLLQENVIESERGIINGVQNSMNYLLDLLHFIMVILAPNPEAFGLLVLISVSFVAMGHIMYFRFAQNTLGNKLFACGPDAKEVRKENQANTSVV

[2] = target: T2, human FPN1 C-terminally fused with GFP (human, UniProt Q9NP59 1-571, GFP reporter fused to the C-terminus ("FPN1 is C-terminally fused with GFP"). It is left out because the patent gives no letters for it.); assay: inhibition of binding of 30 nM biotinylated hepcidin to FPN-GFP/293 cells, ELISA of lysate; control antibody at 1.2 uM; mean
T2 sequence: T1 sequence

[3] = target: T2, human FPN1 C-terminally fused with GFP; assay: inhibition of binding of 30 nM biotinylated hepcidin to FPN-GFP/293 cells, ELISA of lysate; control antibody at 6.0 uM; mean
[4] = target: T2, human FPN1 C-terminally fused with GFP; assay: inhibition of binding of 30 nM biotinylated hepcidin to FPN-GFP/293 cells, ELISA of lysate; control antibody at 0.24 uM; mean
[5] = target: T2, human FPN1 C-terminally fused with GFP; assay: inhibition of binding of 30 nM biotinylated hepcidin to FPN-GFP/293 cells, ELISA of lysate; control antibody at 0.048 uM; mean
[6] = target: T2, human FPN1 C-terminally fused with GFP; assay: cell-based or functional assay
[7] = target: T2, human FPN1 C-terminally fused with GFP; assay: cell-based or functional assay; remark: listed apart in the source
[8] = target: T2, human FPN1 C-terminally fused with GFP; assay: SPR, Biacore T100, 25 C, 1:1 model; FPN1-GFP captured from cell lysate on rabbit anti-GFP antibody, Mab injected
[9] = target: T3, rat ferroportin (rat, UniProt Q923U9 1-570, limits assumed); assay: not described; told in the pharmacokinetics example
T3 sequence (looked up): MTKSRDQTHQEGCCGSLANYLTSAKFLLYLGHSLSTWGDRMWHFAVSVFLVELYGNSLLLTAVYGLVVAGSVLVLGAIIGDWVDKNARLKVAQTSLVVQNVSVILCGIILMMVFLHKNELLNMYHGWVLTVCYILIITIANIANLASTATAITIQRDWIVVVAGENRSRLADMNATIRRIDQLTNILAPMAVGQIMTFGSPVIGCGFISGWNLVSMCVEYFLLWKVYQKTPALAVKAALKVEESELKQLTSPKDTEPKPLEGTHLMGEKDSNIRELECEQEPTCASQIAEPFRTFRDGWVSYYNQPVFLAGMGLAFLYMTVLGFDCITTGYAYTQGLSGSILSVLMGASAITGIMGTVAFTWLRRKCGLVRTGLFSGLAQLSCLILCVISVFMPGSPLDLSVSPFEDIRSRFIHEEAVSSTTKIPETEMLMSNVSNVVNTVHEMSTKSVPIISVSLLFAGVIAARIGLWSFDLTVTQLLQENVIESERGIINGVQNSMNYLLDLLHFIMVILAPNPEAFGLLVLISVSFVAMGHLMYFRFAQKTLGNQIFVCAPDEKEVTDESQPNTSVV

[10] = target: T1, human ferroportin 1; assay: inhibition of binding of 30 nM biotinylated hepcidin to FPN/293 cells, ELISA of lysate; antibody at 125 nM; mean
[11] = target: T1, human ferroportin 1; assay: inhibition of binding of 30 nM biotinylated hepcidin to FPN/293 cells, ELISA of lysate; antibody at 500 nM; mean
[12] = target: T1, human ferroportin 1; assay: inhibition of binding of 30 nM biotinylated hepcidin to FPN/293 cells, ELISA of lysate; antibody at 7.8 nM; mean
[13] = target: T1, human ferroportin 1; assay: inhibition of binding of 30 nM biotinylated hepcidin to FPN/293 cells, ELISA of lysate; antibody at 2000 nM; mean
[14] = target: T1, human ferroportin 1; assay: inhibition of binding of 30 nM biotinylated hepcidin to FPN/293 cells, ELISA of lysate; antibody at 31.25 nM; mean

% Inhibition of hepcidin-induced ferritin increase in Caco-2 cells, 6.25 µg/mL [1]: 0%
% Inhibition of hepcidin-induced ferritin increase in Caco-2 cells, 12.5 µg/mL [1]: 0%
% Inhibition of hepcidin-induced ferritin increase in Caco-2 cells, 25 µg/mL [1]: 7.2%
% Inhibition of hepcidin-induced ferritin increase in Caco-2 cells, 50 µg/mL [1]: 0%
% Inhibition of hepcidin-induced ferritin increase in Caco-2 cells, 100 µg/mL [1]: 3.5%
% Inhibition of hepcidin-induced ferritin increase in Caco-2 cells, 200 µg/mL [1]: 11.6%
Ferritin (ng)/protein (µg) in hepcidin-treated Caco-2 cells, 6.25 µg/mL (ng ferritin/µg protein) [1]: 10.4
Ferritin (ng)/protein (µg) in hepcidin-treated Caco-2 cells, 12.5 µg/mL (ng ferritin/µg protein) [1]: 10
Ferritin (ng)/protein (µg) in hepcidin-treated Caco-2 cells, 25 µg/mL (ng ferritin/µg protein) [1]: 9.6
Ferritin (ng)/protein (µg) in hepcidin-treated Caco-2 cells, 50 µg/mL (ng ferritin/µg protein) [1]: 10.1
Ferritin (ng)/protein (µg) in hepcidin-treated Caco-2 cells, 100 µg/mL (ng ferritin/µg protein) [1]: 9.78
Ferritin (ng)/protein (µg) in hepcidin-treated Caco-2 cells, 200 µg/mL (ng ferritin/µg protein) [1]: 9.4
% Inhibition [2]: 0.5%
% Inhibition [3]: -3.4%
% Inhibition [4]: -4%
% Inhibition [5]: -11%
Molecule: Mouse IgG1, a negative control (antibody)

Percent (%) Inhibition of Mature Human Hepcidin-induced Internalization and Degradation, Mab at 7.4 nM [6]: 24.3%
Percent (%) Inhibition of Mature Human Hepcidin-induced Internalization and Degradation, Mab at 22 nM [6]: 49.9%
Percent (%) Inhibition of Mature Human Hepcidin-induced Internalization and Degradation, Mab at 67 nM [6]: 61.8%
Percent (%) Inhibition of Mature Human Hepcidin-induced Internalization and Degradation, Mab at 200 nM [6]: 62.4%
Percent (%) Inhibition of Mature Human Hepcidin-induced Internalization and Degradation, Mab at 600 nM [6]: 67.9%
Absolute IC50 of inhibition of hepcidin-25-induced internalization and degradation of FPN1-GFP [7]: 18.8 nM
Relative IC50 of inhibition of hepcidin-25-induced internalization and degradation of FPN1-GFP [7]: 9.2 nM
Top % Inhibition of hepcidin-25-induced internalization and degradation of FPN1-GFP [7]: 69%
Kd [8]: 0.728 nM
koff [8]: 9.81e-05 s⁻¹
kon [8]: 135000 M⁻¹ s⁻¹
B1: Mab 1G9 (antibody, mouse IgG1, kappa, V domains shown)
VH: QVQLKQSGAELVRPGTSVKVSCKASGYAFTSFLIEWLKQRPGQGLEWIGTINPRTGGTKYNEKFRGKATLTADKSSSTAYMQLNSLTSDDSAVYFCVREFFDYWGQGTSLTVSS
VL: ETTVTQSPSYLAASPGETITINCRASKSISKYLAWFQEKPGKTNKLLIYAGSKLHSGIPSRFSGSGSGTDFTLTISSLEPEDFAMYYCFQHNEYPYTFGGGTKLELKR
notes: also called mouse 1G9; murine Mab 1G9

Absolute IC50 of inhibition of hepcidin-25-induced internalization and degradation of FPN1-GFP [7]: 5.7 nM
Relative IC50 of inhibition of hepcidin-25-induced internalization and degradation of FPN1-GFP [7]: 4.7 nM
Top % Inhibition of hepcidin-25-induced internalization and degradation of FPN1-GFP [7]: 85.9%
EC50 of inhibition of mature hepcidin induced increase in cellular ferritin, Caco-2 cells [1]: 37 nM
Percentage inhibition of mature hepcidin induced increase in cellular ferritin, Caco-2 cells, Mab at 2.22E-7 M [1]: 59.6%
Percentage inhibition of mature hepcidin induced increase in cellular ferritin, Caco-2 cells, Mab at 2.47E-8 M [1]: 36.2%
Percentage inhibition of mature hepcidin induced increase in cellular ferritin, Caco-2 cells, Mab at 2.7E-9 M [1]: 24.9%
Percentage inhibition of mature hepcidin induced increase in cellular ferritin, Caco-2 cells, Mab at 3.0E-10 M [1]: 12%
Percentage inhibition of mature hepcidin induced increase in cellular ferritin, Caco-2 cells, Mab at 6.67E-7 M [1]: 61.9%
Percentage inhibition of mature hepcidin induced increase in cellular ferritin, Caco-2 cells, Mab at 7.4E-8 M [1]: 45.6%
Percentage inhibition of mature hepcidin induced increase in cellular ferritin, Caco-2 cells, Mab at 8.0E-9 M [1]: 28%
Percentage inhibition of mature hepcidin induced increase in cellular ferritin, Caco-2 cells, Mab at 9.0E-10 M [1]: 19.5%
binding result [9]: no binding
% Inhibition [10]: 59.3%
% Inhibition [11]: 84.9%
% Inhibition [12]: 5.4%
% Inhibition [13]: 95.3%
% Inhibition [14]: 13.4%
B2: Mab 4A10-3 (antibody, human IgG4 S228P, kappa, F234A L235A, V domains shown)
VH: QVQLVQSGAEVKKPGSSVKVSCKASGYAFTSFLIEWVRQAPGQGLEWMGTSNPRTGGRKYKEKFRGRVTITADKSTSTAYMELSSLRSEDTAVYYCAREFFDYWGQGTTVTVSS
VL: DIQMTQSPSSLSASVGDRVTITCRASKSISKYTAWYQQKPGKAPKLLIYAGSKLHWGVPSRFSGSGSGTDFTLTISSLQPEDFATYYCQQHNEYPYTFGGGTKVEIKR

Absolute IC50 of inhibition of hepcidin-25-induced internalization and degradation of FPN1-GFP [7]: 3.8 nM
Relative IC50 of inhibition of hepcidin-25-induced internalization and degradation of FPN1-GFP [7]: 3.7 nM
Top % Inhibition of hepcidin-25-induced internalization and degradation of FPN1-GFP [7]: 92.6%
EC50 of inhibition of mature hepcidin induced increase in cellular ferritin, Caco-2 cells [1]: 28 nM
Percentage inhibition of mature hepcidin induced increase in cellular ferritin, Caco-2 cells, Mab at 2.22E-7 M [1]: 69.3%
Percentage inhibition of mature hepcidin induced increase in cellular ferritin, Caco-2 cells, Mab at 2.47E-8 M [1]: 45.3%
Percentage inhibition of mature hepcidin induced increase in cellular ferritin, Caco-2 cells, Mab at 2.7E-9 M [1]: 34.8%
Percentage inhibition of mature hepcidin induced increase in cellular ferritin, Caco-2 cells, Mab at 3.0E-10 M [1]: 14.2%
Percentage inhibition of mature hepcidin induced increase in cellular ferritin, Caco-2 cells, Mab at 6.67E-7 M [1]: 75.2%
Percentage inhibition of mature hepcidin induced increase in cellular ferritin, Caco-2 cells, Mab at 7.4E-8 M [1]: 61.1%
Percentage inhibition of mature hepcidin induced increase in cellular ferritin, Caco-2 cells, Mab at 8.0E-9 M [1]: 31.6%
Percentage inhibition of mature hepcidin induced increase in cellular ferritin, Caco-2 cells, Mab at 9.0E-10 M [1]: 23.3%
binding result [9]: no binding
% Inhibition [10]: 88.4%
% Inhibition [11]: 81.6%
% Inhibition [12]: 18.7%
% Inhibition [13]: 79.9%
% Inhibition [14]: 32.1%
B3: Mab Combi11 (antibody, human IgG4 S228P, kappa, F234A L235A, V domains shown)
VH: B2 VH with G57R, R58T, E62S
VL: B2 VL with L54R

Absolute IC50 of inhibition of hepcidin-25-induced internalization and degradation of FPN1-GFP [7]: 6.2 nM
Relative IC50 of inhibition of hepcidin-25-induced internalization and degradation of FPN1-GFP [7]: 4.8 nM
Top % Inhibition of hepcidin-25-induced internalization and degradation of FPN1-GFP [7]: 81.6%
EC50 of inhibition of mature hepcidin induced increase in cellular ferritin, Caco-2 cells [1]: 193 nM
Percentage inhibition of mature hepcidin induced increase in cellular ferritin, Caco-2 cells, Mab at 2.22E-7 M [1]: 53.8%
Percentage inhibition of mature hepcidin induced increase in cellular ferritin, Caco-2 cells, Mab at 2.47E-8 M [1]: 30.1%
Percentage inhibition of mature hepcidin induced increase in cellular ferritin, Caco-2 cells, Mab at 2.7E-9 M [1]: 39.6%
Percentage inhibition of mature hepcidin induced increase in cellular ferritin, Caco-2 cells, Mab at 3.0E-10 M [1]: 24.1%
Percentage inhibition of mature hepcidin induced increase in cellular ferritin, Caco-2 cells, Mab at 6.67E-7 M [1]: 61.7%
Percentage inhibition of mature hepcidin induced increase in cellular ferritin, Caco-2 cells, Mab at 7.4E-8 M [1]: 40.6%
Percentage inhibition of mature hepcidin induced increase in cellular ferritin, Caco-2 cells, Mab at 8.0E-9 M [1]: 39.5%
Percentage inhibition of mature hepcidin induced increase in cellular ferritin, Caco-2 cells, Mab at 9.0E-10 M [1]: 24.4%
% Inhibition [10]: 76.5%
% Inhibition [11]: 99.8%
% Inhibition [12]: -0.1%
% Inhibition [13]: 85.1%
% Inhibition [14]: 27.5%
B4: Mab L2.2-4 (antibody, human IgG4 S228P, kappa, F234A L235A, V domains shown)
VH: B2 VH
VL: B2 VL with H55R, W56S

— US20130122013A1 (Eli Lilly, published 2013)
